The data set can be described thus: soluble on expression in E. coli; label from the status in PepcDB or PDB records.
Take “MGSDKIHHHHHHMMKQIIAMAGGGFSMEPDNLSLDQYILNQSKREQHRICFLPTASGDSQNYIQRFYHAFQTLDCVPSHLSLFKPPSSDLVSFVMEMDVIYVGGGNTRNLLVLWKEWGLDHILREAWKNGVVVAGISAGAICWFEEGVTDSAGPLTSLKSLGFLQGSFCPHYDGEKDRRPAYHQLISNKFLCSGYAADDGAALHFINDQLFQTVSSRSGAKAYRVMMAEHEIAEIPLPVKYVRVKLAEYYLYSSFFQIDFMIR”: the “soluble on expression in E. coli” value is given as “not soluble”.

For “MGSDKIHHHHHHVAKPKTVYICSECGGQSPKWAGQCPSCNAWNTLVESVAEAPSTHRFQSLAKSAPVRRLADIEASDVPRFTTGVSEFDRVLGGGLVPGGVVLIGGDPGIGKSTLLLQSLAEIAADKRALYISGEESAAQIALRAQRLSLLEPGSRASELQLLAEIQLEKIQATIAEQRPDVAVIDSIQTVYSDALTSAPGSVAQVRECAAQLTRIAKQSGTTIIMVGHVTKEGALAGPRVLEHIVDTVLYFEGDTHSSYRLVRAIKNRFGAVNELGVFAMTERGLRGVANPSALFLSQHEQSVAGSCVLVTQEGTRPLLVEVQALVDAANAPNPRRLAVGLEQNRLAMLLAVLHRHAGIACFDQDVFLNAVGGVKITEPAADLAVLLAIHSSMRNKPLPKGLVVFGEVGLAGEIRPSPRGQERLKEAAKLGFSVAVIPRANAPKQPIEGLQVVAVERIEQAIDRVRTLE”, the “soluble on expression in E. coli” value is reported as “not soluble”.

“MLKPLGDRVVIELVQAEEKTASGIVLPDTAKEKPQEGKVIAVGTGRVLENGERVALEVAAGDLIIFSKYAGTEVKYEGTDYLILRESDILAVIG”: the “soluble on expression in E. coli” value is on record as “not soluble”.

As for “ALEGTEFARAQLSEAMTLASGLKTKVSDIFSQDGSCPANTAATAGIEKDTDINGKYVAKVTTGGTAAASGGCTIVATMKASDVATPLRGKTLTLTLGNADKGSYTWACTSNADNKYLPKTCQTATTTTP”, the “soluble on expression in E. coli” value was “soluble”.

As for “MGSDKIHHHHHHMPAIELSNGEARLLARPDLGAGLTAFDVLHDGVWQAIFRRVDPSTAHPFALSNILLVPFSGRVSGGGFTFDGTFHALPRNVETELYPIHGNGFSAAWDVASLSADLLTLTLSAEGPGPFRYDATMSYRLQGAGLLMELSLVNRARIRLPYGAGFHPWFVREPDTTLHAPARGVWLEQSDHLPKAHDAIAAQADLDFNRPKPLPARWINNWFDGWDGKARIHWPSRGLAVDVDASEGLRQYVVFSPAAAADFFCFEPVTHPVDAFNLPGKAEAHGLKILEPDESLAVSARVAADFG”, the “soluble on expression in E. coli” value is listed as “not soluble”.

On to “MIVAFENNVVCSDEKVRDYLLAHHADLKEDQDEDALCLVRLHKEEDIDGTDRVDLAGWREISRELYWTGEQMECNYSIIRFSRKTTSLQMSVVLSTCNQLEWLEKVLWGYEAQDTKNFELIIADDGSRKETYDMLQRITPQLSFQVKHVWHEDKGFRKCDILNKGILAAQADYLLFSDGDCIPRKDFVSTHLCLRRKGRFLSGGYHKLSMDLSKDITKDDILSGRCFDLQWMRGKGMPASFKNNKLTATGFKRWALNTFTPTKASWNGHNASGWLSDILAVNGFDERMQYGGQDREFGERLENYGIHGMQIRYSTVCLHLDHARGYKTKDSIQKNRNIRKHTRGAKVQWASLGIVKDELRGQSVKVNSYYDRYTREEEKLTSYKEKGGFYRHIYSLPCRWRRAKYHDKVVRAYQQDTDAPALSNHSGVIVSLTTFPPRISQLHLMLKSILWQTCPPEKIIVWLSEQEFPGRLNDLPEELKRLMAKGIAFRFVSENFRSHKKYHYVFREYPDSKVITVDDDLIYPRNTVERLLSLSYQYPDTVCGNVIRKIHMDGNSFSVYRKWTKVFTMPVNSSLQNVAIGCGGIYYPPHWYGEELFDWKIISEHCPSADDLWLKANELKRRVKVTGGGEFYPRPIELPQTQNNSLQKKNNGKTNLNDKQWKSLNELWKLDELYCINGK”, for which the “soluble on expression in E. coli” value is reported as “not soluble”.

Turning to “MGSDKIHHHHHHMIDSHAHLISADVERYPTSPLSGELEPGALDNPVTAERLLALMDEQGIERALAVQRAHIYGFNNAYVCDAAQRYPERLRALGMVDALDQNIREQVRHWVGERGAVGIRLTEPFKGADPSWFASPEAMAAWETVSELGGSVRLHFYRWNREAALKALKPVLQRFPQTTVVLDHFSNIVGESGAPDHGVDATLLEMVEHSNVYLLYSMINLGKLAAAQMAAAPMVERVVREFGADRVMWGSDVAQSKGSYAQMVALAKESVSLLSETDQRKVLHDTAHAVYWGTR”, the “soluble on expression in E. coli” value is listed as “not soluble”.

On to “MSLAGTIAIKNGYVFDPLNEINGEKMDIFIRDGKVVKELSASEMKTSRVIDASGMTVMPGGVDSHSHVAGAKVNAGRSMRPEDHYKANLKKTPLTHSGSGYTVPSVYKQGYDYAAMGYTTVFEAAVPPLEARHTHEEMRATPLLDMGGYLVLGNNFFLMRYLRDGDMEKAAAYVAWMMKTHKTYGIKCVNPAGVENWAWGKNVSTLDETNIHFEITPREVIKGLTEVNETLGMPMPVHLHANNLGHPGCYAITKDSLKIPDGVKTKQNMAVEWAETKMDLSRDRSVYLTHLMFNSFAGTTWGDCESGVKDIADYINNKDHVVIDSGCTPFGEATVMTGDGPAIHDLYTLTGNKWSNTDVEMECGSGVLPFTYLKSNPVHSLQWAMGLECLLLIKDPWKTIMTTDSPNGGPFTKYPEVMTWIMSEAFRKQTFSECHKWANDRSELGGINRELSLYDLAILTRANPAKTIGMAHRKGSLGVGADGDVTVYNINPQQLDANNYEALLRTFRKAEYTVKGGEIVAVKGEIVSLPEKRTYYSEVHVENEREKEMLVDVKEWFRYYTLGFANYSTPEKYLANPTPIQVNSEGHHHHHH”, for which the “soluble on expression in E. coli” value is “not soluble”.

As to “MAIVLLVLHVCTGLRGSPVSGRVRMAVDSGIYLAPCSNNDAQEHLKRTVINGVDRDDYGQYTNVGFGDSVSIWGVKGGNESHWQDIDAGDYLFFYTGDETYSQVAEVLATDQNEGLAEHLWPGFEDTWEFIIYLNEPIPVNIDSNEIADYAGYKQNYILGFQSLRGSAVDEINDEYGSIEGYINANRTDGNHIQTSGGSQDPDEGDDSVVDEVLDEADRDEEAYANIARQLEEVGQVVFYGPPGTGKTYNAQQFARWWLHNLQSEPRESQVRSVTFHPSYTYEDFIEGLTANATENSVSYDIKPGKFKAICEDARVAYQETGPNEEPPRYVLLIDEINRGNLAQIFGETITLLEEDKRGTLHVDLAHSGGSFTIPPNLYVIGTMNTADRSVALVDAALRRRFRFIDFPPDYGVARSRFGFDTEYDLTSAARGERSDLEQLQALSIQAVEQLNETIIELPDLGKGKQIGHSYLLVDPDDEQALVDAWRYEILPLLEEYFYGQLSRIRQELFNQNGDSLVDWEREQIKDFDPETLRESLQAIVNAGLEHHHHHH”, the “soluble on expression in E. coli” value was “not soluble”.

As for “AMGSATISRRGILVIRHGERVDQVFGKSWLQQCTTADGKYYRPDLNFPRSLPRRSNGIKDFENDPPLSSCGIFQARLAGEALLDSGVRVTAVFASPALRCVQTAKHILEELKLEKKLKIRVEPGIFEWMKWEASKATLTFLTLEELKEANFNVDLDYRPALPRCSLMPAESYDQYVERCAVSMGQIINTCPQDMGITLIVSHSSALDSCTRPLLGLPPRECGDFAQLVRKIPSLGMCFCEENREDGKWDLVNPPVKTLTHGANSVFNWRNWIS”, the “soluble on expression in E. coli” value is listed as “soluble”.

As for “MGSDKIHHHHHHMKIKAIITGATGMVGEGVMHECLLNPDVEEVLIINRKPSGFTHAKLKEIIHTDFFNLAPVEQQLAGYNACYFCLGVSSIGMNEADYTKMTYTLTMHVAETLSRLNKDMTFCYVSGASTDSTEKGKSMWARVKGKTENDLTRLPFKDVYNFRPGYMQPTPGLKNTQKYYTYMSWMYPFLKLVFKNYVSTLKDVGLAMIRVTLFGHNKQVLEVPDIKALAKKTQFV”, the “soluble on expression in E. coli” value was “not soluble”.

“MVNVLSNLSNLSNILGKSNKGVGIELAPERMNIVHLCKQRQGLKIESLTTIPVPEGIVVDGQINDPPRMAEIIQQGMAESKIKASRVATCIPGRDAIVRVIPVPAELDNKELREMVLNHEAALYLPYPREEADVDYQKLGYFVDEDGIEKVQVLLVATRKEITDTYINTFAEAGLKVDVLEINSFALIRTIRDQLRLFGPQEAAVLVDIEFDSTEIAIIINGVPQFSRTVPIGTYQLQAALSRAMNLPTSRDMDMLMGMTIPTNSMDVGRTGTTGVNPGMGPMLKILGELSDELRRSIDFYINQSEGLEVAQILLAGTGGGLQQLDEFFTQRLGFPTTQIDPIRDLSLQVEAEKYPPVQRPGLGIILGLAMREG”: the “soluble on expression in E. coli” value was “not soluble”.
